# Assay results taken from the nanobody polyreactivity screen of Harvey et al. (2022).
# Experiment: yeast display, Sf9 membrane polyspecificity reagent, FACS + sequencing; frameworks hold sequencing errors
# Method in brief: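 Nanobodies from a synthetic yeast display library (Saccharomyces cerevisiae BJ5465), induced 36–48 hours with galactose, were stained 1 hour at 4 °C with 10% biotinylated, detergent-solubilized Sf9 membrane reagent, enriched on streptavidin microbeads, then FACS-sorted. Anti-HA (expression) and streptavidin (reagent binding) fluorescence set low and high (top ~1%) gates. Polyreactivity labels come from the gate of origin. Genes were colony-PCR amplified, MiSeq 2 × 250 sequenced and filtered by CDR length.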
row,Sequence,polyreactivity (PSR sort gate)
1,QVQLVESGGGLVQEGGSLRLSCAASGFTLYGYTMGWYRQAPGKERELVAAISGSGGRTYYADSVKGRFTISRDNAKNTVYLQMNSLKPEVTEVYYCAADSRGTWYGYDYWGQGTQVTVSS,high polyreactivity
2,QVQLVESGGGLVQEGGSLRLSCAASGGIFFPNAMGWYRQAPGKERELVAAISWSAGSTYYADSVKGRFTISRDNAKNTVYLQMKSLKPEDTAVYYCAAAGSNYTVWFGYYYWGQVTQVTVSS,low polyreactivity
3,QVQLVESGGGLVQEGGSLRLSCAASGGIFGEYDMGGYRQAPGKERELVAAINWSGGSTYYADSVKGRFTISRDNAKNSVYLQMNSLKPEDTAVYYSAADRGYPRKVDYWGQVTQVTVSS,low polyreactivity
4,QVQLVESGGGLVQEGGSLRLSCAASGGIFSAYAMGWYRQAPGKERELVAAISRTGGSTYYADSVKGRFTISRDNAKITVYLQMTSLKPEDTAVYYCNADYRRYPEFDYWGQGTQVTVSS,high polyreactivity
5,QVQLVESGGGLVQEGGSLRLSCAASGGTFAYAMGWYRQAPGKERELVAAITWRGGDTYADSVKGRFTISRDNAKNTVYLQMNSLKPEDTAVYYCAAEFRDVSSNGYDYWGQGTQVTVSS,low polyreactivity
6,QVQLVESGGGLVQEGGSLRLSCAASGGTFYAYTMGWYRPAPGTERELVAAISRSGGSTYYADSVKGRITISRDTAKNSVYLQINSLKPEDTAVYYCAAVESGADYYYWGQGTQVTVSS,high polyreactivity
7,QVQLVESGGGLVQEGGSLRLSCAASGIIFPVYDMGWYRQAPGKERELVASITDSGGSTSYADSVKGRFTLSRDNAKNTVYLQMNSLKPEDTAVYYCAVTDSDTNYYGYLSYDYWGQGTQVTVSS,low polyreactivity
8,QVQLVESGGGLVQEGGSLRLSCAASGIIFRWYAMGWYRQAPGKERELVAAITSDGNTYYADSVKGRFTISRDNAKNTVYLQMNSLKPVDTAVYYCAARLSYYSRMNYWGQGTQVTVSS,high polyreactivity
9,QVQLVESGGGLVQEGGSLRLSCAASGILVYNAMGWYRQAPGTERELVAAISARGGRTYYADSVKGRFTISRDNAQNTDSLQMNSLKPEDTAVYYCASRSSKSRTYDYWGQGTQVTVSS,high polyreactivity
10,QVQLVESGGGLVQEGGSLRLSCAASGITFSRNAMGWYRPAPGKERELVATITSGGSTNYADSVKGRFTISRDNAKNNVYLQMNSLKPEDTAVYYCNAVWNTFISGRSYDYWGQGTQVTVSS,low polyreactivity
11,QVQLVESGGGLVQEGGSLRLSCAASGLIFGAYALGWYRQAPGKERELVAAISGRGGSTYYADSVKGRFTISHDNAKNTVYLQMNSLKPEDNAVYYCAAPWRYTYYYWGQGTQVTVSS,high polyreactivity
12,QVQLVESGGGLVQEGGSLRLSCAASGLIFNRYDMGWYRQAPGKVTELVAAITSRGGRTYYADSVKGRFTISLDNAKTTVYLQMNSLKPEDTAVYYCNRTPTGSSLYGMDYWGQGTQVTVSS,high polyreactivity
13,QVQLVESGGGLVQEGGSLRLSCAASGLIFSYYAMGWYRQAPGKERELVAAISWSGASTFYADSVKGRFTISRDNAKNTVYLQMNSLKPEDTAVYYCAADTYGKTYYYWGQGTLVTVSS,low polyreactivity
14,QVQLVESGGGLVQEGGSLRLSCAASGLTFPYYAMGWYRQAPGKERELVAGISDSGGSTYYADSVKGRFTISRDNAKNTVYVQMNSLKPEDTAVYYCAAQGVDSYYENVYWGQGSQVTVSS,high polyreactivity
15,QVQLVESGGGLVQEGGSLRLSCAASGRIFPYYAMGWYRQAPGKERELVAAITSGSRTYYADSVKGRFTISRDNAKNTVYLQMNSLKPEHTAVYYCNAVGGNSAYVYWGQGTQVTVSS,high polyreactivity
16,QVQLVESGGGLVQEGGSLRLSCAASGRIFQWNAMGWYRQAPGKERELVATISSRGGSTYYADSVKGRFTISRDNAKNTVYLQMNSLKPEDTAVYYCAARYYAKYRSYDYWGQGTQVTVSS,high polyreactivity

row,Sequence,polyreactivity (PSR sort gate)
1,QVQLVESGGGLVQEGGSLRLSCAASGRIFRRYTMGWYRQAPGKERELVAVITSGGNTHYADSVKGRFTISRDNAKNTVYLQMNSLKPEDTAVYYCAARHYRGSNDYWGQGTQVTVSS,high polyreactivity
2,QVQLVESGGGLVQEGGSLRLSCAASGRIFWSYAMGWYRQAPGKERELVAAITWRTGRTYYADSVKGRFTISRDNAKNTVYLQMNSLKPEDTAVYYCAAEGYLGGQSYNGLNYDSWGQGTQVTVSS,low polyreactivity
3,QVQLVESGGGLVQEGGSLRLSCAASGRTFGYYVMGWYRQAPGKERELVAAISNTDSTYYADSVKGRFTISRDNAKNSVYLQMNSLKPEDTAVYYCDKDGRTVAYTWTRTHYYWGQGTQVTVSS,low polyreactivity
4,QVQLVESGGGLVQEGGSLRLSCAASGSIFVLYAMGWYRQAPGKERQLVAAINYEGASTYYADSVKGRFTISRDNAKITVYLQMNSLKPEDKAVFYCAARWQFNIDVQLYLFEYWGQGTQVTVSS,low polyreactivity
5,QVQLVESGGGLVQEGGSLRLSCAASGSTFDSNAMGWYRQAPGTERELVAAIDWSGGSTYYADSVKGRFTISRDNAKNSVYLQMNSLKPEDTAVYYCAADDYSSNYGDFDYWGQGTQVTVSS,low polyreactivity
6,QVQLVESGGGLVQEGGSLRLSCAASGSTFEYNAMGWDRQAPGKEREFVAAISRTGSRTYYADSVKGRFTISRDNAKNTVFLQMNSLIPEDTAVYYCASVKSRLQVGYYSWGQGTQVTVSS,high polyreactivity
7,QVQLVESGGGLVQEGGSLRLSCAASGSTFGVYSMGWYRQAPGKERELVAAISYTGGSTYYADSVKGRFTISRDNAKNSVYLQMNSLKPEDTGVFYCAVEVGYTDSPYSYDYWGEGTQVTVSS,low polyreactivity
8,QVQLVESGGGLVQEGGSLRLSCAASGSTFTTNVMGWYRQAPGKERELVAAISWSSGSTYYADSVTGRFTISRDNAKNTVYLQMNSLKPEDTAVYYCAARLVIFYPYSRYYYWGQGTQVTVSS,high polyreactivity
9,QVQLVESGGGLVQEGGSLRLSCAASGSTFTYYAMGWYRQAPGKERELVAAISRSGGNTYYADSVKGRFTISRDNAKNTVYLQMNSLKPEDTAVYYCAAYRQVYGFDYWGQGTQVTVSS,high polyreactivity
10,QVQLVESGGGLVQEGGSLRLSCAASGSTFWGYAMGWYRQAPGKERELVATITTGGSTNYADSVKGRFTISRDNAKNTVYLQMNSLKPEDTAVYYCAAERLFRFWYSAYERYDYCGQGTQVTVSS,low polyreactivity
11,QVQLVESGGGLVQEGGSLRLSCAASRRTFRLYVMGWYSQAPGKERELVAAITWRGRTTYYAHSVKGRFTISRDNAKNTVYLQMNSLKPEDTAVYYCATTRYPRSYQEFGYWGQGTQGTVSS,high polyreactivity
12,QVQLVESGGGLVQEGGSLRLSCAGSGRTFTFNVMGWYRQAPGKEREFVAAITGTDGSTYYADSVKGRFTISRDNAKNTVYLQMNSLKPEDTAVFYCAARYDWGYVDPGDYWGQGTQVTVSS,high polyreactivity
13,QVQLVESGGGLVQEGGSLRLSCAPSGRTFAKYAMGWYRQSPGKERELVAAITRGDTTNYADSVKGRFTISRDNAKNTVYLQMNSLKPEDTAVYYCAATPDPPHTYEYWGQGTQVTVSS,low polyreactivity
14,QVQLVESGGGLVQEGGSVRFSCAASGSISKPNARGWYRQAAGKERELVASITRGGIPNYADSVKGRVTISRDNAKNTVYLQMNSLKPEDTAVYDCAAFYAYSKYSYNIRFYYWGQGTQVTVAS,high polyreactivity
15,QVQLVESGGGLVQGGGSLRLSCAASGFIFDGNAMGWSRQAPGKEREFVASNSGSGDSTYYADSVKGRFTISRDNAKNTVYLQMNSLKPEDTAVYYCAYEGTPWASGNDYWGQGTQVTVSS,low polyreactivity
16,QVQLVESGGGLVQGGGSLRLSCAASGRTFAPNAMGWYRQAPGKERELVAAISYNSGTTYYADSVKGRFTISRDNAKNTVYLQMNSLKPEDTAVYYCAAGHWVGPYQAMEYWGQGTQVTVSS,high polyreactivity
